The record followed here is the RNAGym collection of RNA variant scans (doi:10.7554/elife.80360).

The labels stand for the following.
B1: HDV Ribozyme (parent)
chain: GGCCGGCAUGGUCCCAGCCUCCUCGCUGGCGCCGGCUGGGCAACAUUCCGAGGGGACCGUCCCCUCGGUAAUGGCGAAUGGGACCCA

In the data set the parent is B1. Briefly: self-cleavage, relative activity (ratio to wild type); higher = more cleavage; co-transcriptional.
With GGCCGGCAUGGUCCCAGCCUCCUCGCUGGCGCCGGCUGGGGAACAUUCCGAGGGGACCGUCCCCUCGGUAAUGGCGAAUGGUACCCA, the self-cleavage was determined as 0.157. Consider GGCCGGCAUGGUCCCAGCCUCCUCGCUGGCGCCGGCUGGGGAAGAUUCCGAGGGGACCGUCCCCUCGGUAAUGGCGAAUGGGACCCA, for which the self-cleavage came out at 0.158. Turning to GGCCGGCAUGGUCCCAGCCUCCUCGCUGGCGCCGGCUGGGGAACAUUCCUAGGGGACCGUCCCCUCGGUAAUGGCGAAUGGGACCCA, the self-cleavage is 0.708. Turning to GGCCGGCAUGGUCCCAGCCUCCUCGCUGGCGCCGGCUGGGGAACAUUGCGAGGGGACCGUCCCCUCGGUAAUGGCGAAUGGGACCCA, the self-cleavage was determined as 0.682. GGCCGGCAUGGUCCCAGCCUCCUCGCUGGCGCCGGCUGGGGAACAUUACGAGGGGACCGUCCCCUCGGUAAUGGCGAAUGGGACCCA: the self-cleavage was 1.12. On to GGCCGGCAUGGUCCCAGCCUCCUCGCUGGCGCCGGCUGGGGAACAUUUCGAGGGGACCGUCCCCUCGGUAAUGGCGAAUGGGACCCA, for which the self-cleavage amounted to 0.649. For the variant GGCCGGCAUGGUCCCAGCCUCCUCGCUGGCGCCGGCUGGGGAACAUUCCGAGGGGACCGCCCCCUCGGUAAUGGCGAAUGGGACCCA, the self-cleavage stood at 0.997. With GGCCGGCAUGGUCCCAGCCUCCUCGCUGGCGCCGGCUGGGGAACAUUCCGAGGGGACCGGCCCCUCGGUAAUGGCGAAUGGGACCCA, the self-cleavage came out at 0.72.

For the variant GGCCGGCAUGGUCCCAGCCUCCUCGCUGGCGCCGGCUGGGGAACAUUCAGAGGGGACCGUCCCCUCGGUAAUGGCGAAUGGGACCCA, the self-cleavage amounted to 0.489.

Consider GGCCGGCAUGGUCCCAGCCUCCUCGCUGGCGCCGGCUGGGGAACAUUCCGAGGGGAUCGUCCCCUCGGUAAUGGCGAAUGGGACCCA, for which the self-cleavage was determined as 1.04. For the variant GGCCGGCAUGGUCCCAGCCUCCUCGCUGGCGCCGGCUGGGGAACAUUCCGAGGGGAACGUCCCCUCGGUAAUGGCGAAUGGGACCCA, the self-cleavage was 1.05.

In the case of GGCCGGCAUGGUCCCAGCCUCCUCGCUGGCGCCGGCUGGGGAACAUUCCGAGGGGACCGUCCGCUCGGUAAUGGCGAAUGGGACCCA, the self-cleavage was 0.517. With GGCCGGCAUGGUCCCAGCCUCCUCGCUGGCGCCGGCUGGGGAACAUUCCGAGGGGACCGUUCCCUCGGUAAUGGCGAAUGGGACCCA, the self-cleavage stood at 0.886. Under GGCCGGCAUGGUCCCAGCCUCCUCGCUGGCGCCGGCUGGGGAACAUUCCGAGGGGACCGUGCCCUCGGUAAUGGCGAAUGGGACCCA stands 0.875; under GGCCGGCAUGGUCCCAGCCUCCUCGCUGGCGCCGGCUGGGGAACAUUCCGAGGGGACCGUCCCCGCGGUAAUGGCGAAUGGGACCCA, 0.692; under GGCCGGCAUGGUCCCAGCCUCCUCGCUGGCGCCGGCUGGGGAACAUUCCGAGGGGACCGUCCCCACGGUAAUGGCGAAUGGGACCCA, 0.987. Under GGCCGGCAUGGUCCCAGCCUCCUCGCUGGCGCCGGCUGGGGAACAUUCCGAGGGGACCGUCCCCUCGGUAAUGGCUAAUGGGACCCA stands 0.989. For GGCCGGCAUGGUCCCAGCCUCCUCGCUGGCGCCGGCUGGGGAACAUUCCGAGGGGACCGUCCCCUCGGUAAUGGCCAAUGGGACCCA, the self-cleavage was determined as 0.91. For GGCCGGCAUGGUCCCAGCCUCCUCGCUGGCGCCGGCUGGGGAACAUUCCGAGGGGACCGUCCCCUCGGUAAUGGCAAAUGGGACCCA, the self-cleavage was found to be 0.991. For the variant GGCCGGCAUGGUCCCAGCCUCCUCGCUGGCGCCGGCUGGGGAACAUUCCGAGGGAACCGUCCCCUCGGUAAUGGCGAAUGGGACCCA, the self-cleavage is 0.911. As to GGCCGGCAUGGUCCCAGCCUCCUCGCUGGCGCCGGCUGGGGAACAUUCCGAGGGUACCGUCCCCUCGGUAAUGGCGAAUGGGACCCA, the self-cleavage was 0.86. As for GGCCGGCAUGGUCCCAGCCUCCUCGCUGGCGCCGGCUGGGGAACAUUCCGAGCGGACCGUCCCCUCGGUAAUGGCGAAUGGGACCCA, the self-cleavage is 0.658. Under GGCCGGCAUGGUCCCAGCCUCCUCGCUGGCGCCGGCUGGGGAACAUUCCGAGUGGACCGUCCCCUCGGUAAUGGCGAAUGGGACCCA stands 0.53. GGCCGGCAUGGUCCCAGCCUCCUCGCUGGCGCCGGCUGGGGAACAUUCCGAGGGGACCGUCCCUUCGGUAAUGGCGAAUGGGACCCA: the self-cleavage is 0.853. With GGCCGGCAUGGUCCCAGCCUCCUCGCUGGCGCCGGCUGGGGAACAUUCCGAGGGGACCGUCCCAUCGGUAAUGGCGAAUGGGACCCA, the self-cleavage amounted to 0.853. Under GGCCGGCAUGGUCCCAGCCUCCUCGCUGGCGCCGGCUGGGGAACAUUCCGAGGGGACCGUCCCCUCGGUAAUGGCGAAUAGGACCCA stands 0.431. Regarding GGCCGGCAUGGUCCCAGCCUCCUCGCUGGCGCCGGCUGGGGAACAUUCCGAGGGGACCGUCCCCUCGGUAAUGGCGAAUCGGACCCA, the self-cleavage was found to be 0.164. As to GGCCGGCAUGGUCCCAGCCUCCUCGCUGGCGCCGGCUGGGGAACAUUCCGAGGGGACCGUCCCCUCGGUAAUGGCGAAUGAGACCCA, the self-cleavage turned out to be 0.188. Take GGCCGGCAUGGUCCCAGCCUCCUCGCUGGCGCCGGCUGGGGAACAUUCCGAGGGGACCGUCCCCUCGGUAAUGGGGAAUGGGACCCA: the self-cleavage came to 0.219. As for GGCCGGCAUGGUCCCAGCCUCCUCGCUGGCGCCGGCUGGGGAACAUUCCGAGGGGACCGUCCCCUCGGUAAUGGAGAAUGGGACCCA, the self-cleavage was 0.353. On to GGCCGGCAUGGUCCCAGCCUCCUCGCUGGCGCCGGCUGGGGAACAUUCCGAGGGGACCGUCCCCUCGGUAAUGGUGAAUGGGACCCA, for which the self-cleavage stood at 0.095. Turning to GGCCGGCAUGGUCCCAGCCUCCUCGCUGGCGCCGGCUGGGUAACAUUCCGAGGGGACCGUCCCCUCGGUAAUGGCGAAUGGGACCCA, the self-cleavage came out at 0.979.
